A word on the koff: it is the first-order rate constant of dissociation.

This experiment has as its target ubiquitin polyprotein composed of nine identical repeats (Ubi)9 (UniProt P0CG48 1-76). Description: extended unfolded state at 170 pN force (single-molecule force spectroscopy).

Chain of ubiquitin polyprotein composed of nine identical repeats (Ubi)9 (P0CG48 1-684): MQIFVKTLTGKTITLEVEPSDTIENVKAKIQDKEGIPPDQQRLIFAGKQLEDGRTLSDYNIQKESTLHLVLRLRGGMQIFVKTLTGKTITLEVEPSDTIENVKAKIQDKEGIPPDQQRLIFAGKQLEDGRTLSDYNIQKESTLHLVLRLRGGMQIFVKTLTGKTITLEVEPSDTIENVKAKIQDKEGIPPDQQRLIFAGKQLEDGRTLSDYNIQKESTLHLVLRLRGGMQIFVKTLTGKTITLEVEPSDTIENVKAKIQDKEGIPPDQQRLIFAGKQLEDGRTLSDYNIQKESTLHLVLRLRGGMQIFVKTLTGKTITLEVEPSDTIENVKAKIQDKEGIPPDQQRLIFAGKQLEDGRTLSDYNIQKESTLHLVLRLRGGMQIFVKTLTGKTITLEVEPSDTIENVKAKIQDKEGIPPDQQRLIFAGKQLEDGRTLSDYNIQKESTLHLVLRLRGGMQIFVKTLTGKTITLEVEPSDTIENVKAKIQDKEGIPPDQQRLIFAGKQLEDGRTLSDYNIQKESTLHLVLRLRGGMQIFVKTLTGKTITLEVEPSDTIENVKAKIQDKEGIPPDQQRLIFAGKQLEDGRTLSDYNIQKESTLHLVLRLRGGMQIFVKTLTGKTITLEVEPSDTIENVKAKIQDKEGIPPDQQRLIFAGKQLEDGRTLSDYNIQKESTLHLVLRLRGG

B1: DnaJ (Hsp40) (natural protein)
chain: MAKQDYYEILGVSKTAEEREIRKAYKRLAMKYHPDRNQGDKEAEAKFKEIKEAYEVLTDSQKRAAYDQYGHAAFEQGGMGGGGFGGGADFSDIFGDVFGDIFGGGRGRQRAARGADLRYNMELTLEEAVRGVTKEIRIPTLEECDVCHGSGAKPGTQPQTCPTCHGSGQVQMRQGFFAVQQTCPHCQGRGTLIKDPCNKCHGHGRVERSKTLSVKIPAGVDTGDRIRLAGEGEAGEHGAPAGDLYVQVQVKQHPIFEREGNNLYCEVPINFAMAALGGEIEVPTLDGRVKLKVPGETQTGKLFRMRGKGVKSVRGGAQGDLLCRVVVETPVGLNERQKQLLQELQESFGGPTGEHNSPRSKSFFDGVKKFFDDLTR
As to B1, the koff came to 0.0458 s⁻¹.

The values are drawn from PMC5817926 (2018).
